Ki data for two molecules are collected here from US20200024322A1 (Eli Lilly, published 2020).

Numbered stars: 1 amine (or outer) side, 2 acyl side, 3 side chain; on linkers, the order of the positions; unused ones are H or OH. Square brackets hold non-standard residues; d marks the D form. Side chains are listed from the residue outwards. Ends that are not written are not given here. * marks the point of attachment. C20 diacid = O=C(O)CCCCCCCCCCCCCCCCCCC(=O)*; γGlu = O=C(O)[C@H](CCC(=O)[*:2])N[*:1]; AEEA = NCCOCCOCC(=O)O; Aib = CC(C)(N)C(=O)O

One assay concerns the target T1, human glucagon receptor (human, UniProt P47871 26-477).
T1 construct: whole, on cells; Used as crude membranes of stably transfected HEK293 cells; also called hGcgR; hGLcgR
Kind of assay: SPA, [125I]-Gcg displacement, hGcgR membranes.

In a further assay the target is T2, human GIP receptor (human, UniProt P48546 22-466).
T2 construct: whole, on cells; Used as crude membranes of stably transfected CHO cells; also called hGIPR
T2 sequence (looked up): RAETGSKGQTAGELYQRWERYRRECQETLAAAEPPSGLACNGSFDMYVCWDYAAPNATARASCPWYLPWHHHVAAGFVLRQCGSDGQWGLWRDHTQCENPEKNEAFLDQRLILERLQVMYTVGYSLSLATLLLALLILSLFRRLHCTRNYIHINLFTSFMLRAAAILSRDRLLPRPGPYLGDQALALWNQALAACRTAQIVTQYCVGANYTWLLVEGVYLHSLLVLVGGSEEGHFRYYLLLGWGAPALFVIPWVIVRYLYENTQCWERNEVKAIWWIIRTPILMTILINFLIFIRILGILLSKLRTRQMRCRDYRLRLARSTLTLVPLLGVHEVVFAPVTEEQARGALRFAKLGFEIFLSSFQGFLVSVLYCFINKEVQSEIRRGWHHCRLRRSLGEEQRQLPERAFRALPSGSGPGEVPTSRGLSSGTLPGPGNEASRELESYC
The experiment in a line: SPA, [125I]-GIP displacement, hGIPR membranes.

In a further assay the target is T3, human GLP-1 receptor (human, UniProt P43220 24-463).
T3 construct: whole, on cells; Used as crude membranes of stably transfected HEK293 cells; also called hGLP1R; hGLP-1R
The experiment in a line: SPA, [125I]-GLP-1 displacement, hGLP-1R membranes.

The Ki is a dissociation constant, usually derived from enzyme kinetics or from competition with a known ligand.

T1 sequence (P47871 26-477): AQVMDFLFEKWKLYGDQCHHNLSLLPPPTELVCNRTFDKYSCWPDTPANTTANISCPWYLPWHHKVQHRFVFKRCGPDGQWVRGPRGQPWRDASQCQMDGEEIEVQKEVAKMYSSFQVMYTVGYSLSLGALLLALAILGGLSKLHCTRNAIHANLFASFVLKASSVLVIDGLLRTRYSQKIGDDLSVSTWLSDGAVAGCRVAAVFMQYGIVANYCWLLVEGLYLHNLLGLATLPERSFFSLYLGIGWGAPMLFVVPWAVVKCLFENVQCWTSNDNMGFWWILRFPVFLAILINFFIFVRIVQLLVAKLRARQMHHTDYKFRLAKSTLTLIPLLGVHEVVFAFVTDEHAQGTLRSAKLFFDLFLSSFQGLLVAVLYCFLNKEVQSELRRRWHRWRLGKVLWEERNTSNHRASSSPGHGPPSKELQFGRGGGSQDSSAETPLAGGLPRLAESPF

B1: Example 32 (peptide)
peptide: Y[Aib]EGTFTSDYSILLDKIAQ[Aib]K([AEEA-AEEA-γGlu-C20 diacid])FIEYLIEGGPSSGAPPPS-NH2
modifications: N-terminus assumed
SMILES: CC[C@H](C)[C@H](NC(=O)[C@H](CCCCN)NC(=O)[C@H](CC(=O)O)NC(=O)[C@H](CC(C)C)NC(=O)[C@H](CC(C)C)NC(=O)[C@@H](NC(=O)[C@H](CO)NC(=O)[C@H](Cc1ccc(O)cc1)NC(=O)[C@H](CC(=O)O)NC(=O)[C@H](CO)NC(=O)[C@@H](NC(=O)[C@H](Cc1ccccc1)NC(=O)[C@@H](NC(=O)CNC(=O)[C@H](CCC(=O)O)NC(=O)C(C)(C)NC(=O)[C@@H](N)Cc1ccc(O)cc1)[C@@H](C)O)[C@@H](C)O)[C@@H](C)CC)C(=O)N[C@@H](C)C(=O)N[C@@H](CCC(N)=O)C(=O)NC(C)(C)C(=O)N[C@@H](CCCCNC(=O)COCCOCCNC(=O)COCCOCCNC(=O)CC[C@H](NC(=O)CCCCCCCCCCCCCCCCCCC(=O)O)C(=O)O)C(=O)N[C@@H](Cc1ccccc1)C(=O)N[C@H](C(=O)N[C@@H](CCC(=O)O)C(=O)N[C@@H](Cc1ccc(O)cc1)C(=O)N[C@@H](CC(C)C)C(=O)N[C@H](C(=O)N[C@@H](CCC(=O)O)C(=O)NCC(=O)NCC(=O)N1CCC[C@H]1C(=O)N[C@@H](CO)C(=O)N[C@@H](CO)C(=O)NCC(=O)N[C@@H](C)C(=O)N1CCC[C@H]1C(=O)N1CCC[C@H]1C(=O)N1CCC[C@H]1C(=O)N[C@@H](CO)C(N)=O)[C@@H](C)CC)[C@@H](C)CC
Consider B1, for which the inhibition constant Ki stood at 44.7 nM with human glucagon receptor, 0.0205 nM with human GIP receptor and 3.96 nM with human GLP-1 receptor.

B2: Example 34 (peptide)
peptide: Y[Aib]EGTFTSDYSILLDKIAQ[Aib]AFIK([AEEA-AEEA-γGlu-C20 diacid])YLIEGGPSSGAPPPS-NH2
modifications: N-terminus assumed
SMILES: CC[C@H](C)[C@H](NC(=O)[C@H](CCCCN)NC(=O)[C@H](CC(=O)O)NC(=O)[C@H](CC(C)C)NC(=O)[C@H](CC(C)C)NC(=O)[C@@H](NC(=O)[C@H](CO)NC(=O)[C@H](Cc1ccc(O)cc1)NC(=O)[C@H](CC(=O)O)NC(=O)[C@H](CO)NC(=O)[C@@H](NC(=O)[C@H](Cc1ccccc1)NC(=O)[C@@H](NC(=O)CNC(=O)[C@H](CCC(=O)O)NC(=O)C(C)(C)NC(=O)[C@@H](N)Cc1ccc(O)cc1)[C@@H](C)O)[C@@H](C)O)[C@@H](C)CC)C(=O)N[C@@H](C)C(=O)N[C@@H](CCC(N)=O)C(=O)NC(C)(C)C(=O)N[C@@H](C)C(=O)N[C@@H](Cc1ccccc1)C(=O)N[C@H](C(=O)N[C@@H](CCCCNC(=O)COCCOCCNC(=O)COCCOCCNC(=O)CC[C@H](NC(=O)CCCCCCCCCCCCCCCCCCC(=O)O)C(=O)O)C(=O)N[C@@H](Cc1ccc(O)cc1)C(=O)N[C@@H](CC(C)C)C(=O)N[C@H](C(=O)N[C@@H](CCC(=O)O)C(=O)NCC(=O)NCC(=O)N1CCC[C@H]1C(=O)N[C@@H](CO)C(=O)N[C@@H](CO)C(=O)NCC(=O)N[C@@H](C)C(=O)N1CCC[C@H]1C(=O)N1CCC[C@H]1C(=O)N1CCC[C@H]1C(=O)N[C@@H](CO)C(N)=O)[C@@H](C)CC)[C@@H](C)CC
In the case of B2, the figures for the Ki with human glucagon receptor, in the assay with human GIP receptor and in the assay with human GLP-1 receptor were 134 nM, 0.0467 nM and 3.41 nM, respectively.
